Assay results taken from US20230144608.

What was measured:
[1] = test system: PVSLRSGS (SEQ ID NO: 1)
[2] = test system: IVGRPRHQGV (SEQ ID NO: 7)
[3] = test system: RSKYLATA (SEQ ID NO: 8)
[4] = test system: RPLALWRS (SEQ ID NO: 3)
[5] = test system: TQKPLGLS (SEQ ID NO: 4)
[6] = test system: PANLVAPDP (SEQ ID NO: 6)
[7] = test system: APAGLIVPYN (SEQ ID NO: 5)

Sequence of MMP-9 (chain, as listed by the source): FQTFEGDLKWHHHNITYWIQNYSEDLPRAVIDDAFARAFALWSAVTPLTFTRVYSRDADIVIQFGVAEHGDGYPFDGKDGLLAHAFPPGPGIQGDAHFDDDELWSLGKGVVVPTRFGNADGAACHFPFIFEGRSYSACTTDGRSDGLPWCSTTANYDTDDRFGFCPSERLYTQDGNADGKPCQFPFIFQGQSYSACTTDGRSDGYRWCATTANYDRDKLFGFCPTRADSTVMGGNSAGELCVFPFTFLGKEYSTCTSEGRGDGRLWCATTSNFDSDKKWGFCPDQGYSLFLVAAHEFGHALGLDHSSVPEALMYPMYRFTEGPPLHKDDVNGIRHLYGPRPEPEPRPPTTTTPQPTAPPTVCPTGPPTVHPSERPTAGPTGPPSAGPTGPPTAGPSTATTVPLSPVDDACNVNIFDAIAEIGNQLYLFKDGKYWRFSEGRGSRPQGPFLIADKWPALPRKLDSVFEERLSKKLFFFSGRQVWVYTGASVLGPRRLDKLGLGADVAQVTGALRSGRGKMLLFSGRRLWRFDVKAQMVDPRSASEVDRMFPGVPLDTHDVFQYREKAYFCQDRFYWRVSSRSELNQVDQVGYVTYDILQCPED
Sequence of MMP-10 (chain, as listed by the source): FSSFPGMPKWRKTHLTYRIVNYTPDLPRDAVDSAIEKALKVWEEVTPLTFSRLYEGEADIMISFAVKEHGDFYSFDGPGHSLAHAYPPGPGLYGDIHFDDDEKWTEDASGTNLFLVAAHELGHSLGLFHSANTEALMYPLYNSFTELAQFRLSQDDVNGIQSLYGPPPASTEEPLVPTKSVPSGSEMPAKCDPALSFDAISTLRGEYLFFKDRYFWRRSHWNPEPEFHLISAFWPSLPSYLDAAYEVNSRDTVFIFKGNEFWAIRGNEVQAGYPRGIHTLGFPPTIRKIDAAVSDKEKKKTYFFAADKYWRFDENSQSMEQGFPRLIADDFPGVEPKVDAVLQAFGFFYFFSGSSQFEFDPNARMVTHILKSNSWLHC
Sequence of MMP-8 (chain, as listed by the source): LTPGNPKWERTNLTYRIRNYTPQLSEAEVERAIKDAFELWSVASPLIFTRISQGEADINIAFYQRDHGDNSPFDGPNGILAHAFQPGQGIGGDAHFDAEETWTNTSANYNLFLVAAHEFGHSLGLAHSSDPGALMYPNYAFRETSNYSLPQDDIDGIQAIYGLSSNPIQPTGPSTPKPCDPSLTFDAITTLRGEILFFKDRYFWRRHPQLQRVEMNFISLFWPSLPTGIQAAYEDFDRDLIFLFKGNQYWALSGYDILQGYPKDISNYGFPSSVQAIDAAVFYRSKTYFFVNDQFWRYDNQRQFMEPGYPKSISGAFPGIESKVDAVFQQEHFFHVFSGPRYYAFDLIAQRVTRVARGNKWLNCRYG

Row | Substance | initial rate of cleavage by recombinant protease [1] | initial rate of cleavage by recombinant protease [2] | initial rate of cleavage by recombinant protease [3] | initial rate of cleavage by recombinant protease [4] | initial rate of cleavage by recombinant protease [5] | initial rate of cleavage by recombinant protease [6] | initial rate of cleavage by recombinant protease [7]
1 | MMP-8 | 0.1 µM/h | 0 µM/h | 0 µM/h | 0.2 µM/h | 0.1 µM/h | 7.2 µM/h | 0.5 µM/h
2 | MMP-9 | 6.5 µM/h | 0 µM/h | 0 µM/h | 0.2 µM/h | 0.3 µM/h | 8.8 µM/h | 1.8 µM/h
3 | MMP-10 | 0 µM/h | 0 µM/h | 0 µM/h | 0 µM/h | 0 µM/h | 1.8 µM/h | 1.6 µM/h
